The results in this text go back to publication PMC2605961.

Holding throughout (assay): EMSA
For orientation: A gel shift assay detects complexes by their altered migration in electrophoresis.

In one series the target is T1, His-PRH (wild type) (human, UniProt Q03014 7-270).
T1 sequence: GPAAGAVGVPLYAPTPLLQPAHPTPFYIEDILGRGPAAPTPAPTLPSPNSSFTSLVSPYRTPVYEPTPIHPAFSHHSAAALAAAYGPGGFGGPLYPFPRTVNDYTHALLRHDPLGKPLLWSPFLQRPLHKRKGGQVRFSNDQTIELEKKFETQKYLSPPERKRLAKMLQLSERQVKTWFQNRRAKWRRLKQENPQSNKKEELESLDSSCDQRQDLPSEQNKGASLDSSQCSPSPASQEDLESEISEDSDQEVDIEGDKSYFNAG

For a further series, the target named is T2, His-PRH R188A,R189A (human, UniProt Q03014 7-270, R188A;R189A).
T2 sequence: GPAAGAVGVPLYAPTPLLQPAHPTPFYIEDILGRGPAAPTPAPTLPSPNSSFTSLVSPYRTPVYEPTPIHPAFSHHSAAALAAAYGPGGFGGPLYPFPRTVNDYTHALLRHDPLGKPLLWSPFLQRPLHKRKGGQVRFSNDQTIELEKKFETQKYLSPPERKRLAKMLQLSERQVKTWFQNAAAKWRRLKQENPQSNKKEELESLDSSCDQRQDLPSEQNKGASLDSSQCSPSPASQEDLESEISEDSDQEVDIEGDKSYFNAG

In a further series the target is T3, His-PRH N187A (human, UniProt Q03014 7-270, N187A).
T3 sequence: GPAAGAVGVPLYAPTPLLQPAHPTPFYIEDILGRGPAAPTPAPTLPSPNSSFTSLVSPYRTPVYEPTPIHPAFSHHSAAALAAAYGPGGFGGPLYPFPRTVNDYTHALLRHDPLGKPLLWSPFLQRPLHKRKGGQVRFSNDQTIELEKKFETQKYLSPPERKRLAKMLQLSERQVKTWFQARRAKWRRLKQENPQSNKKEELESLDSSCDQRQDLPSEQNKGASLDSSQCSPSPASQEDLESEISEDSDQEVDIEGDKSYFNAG

The target of another series is T4, His-PRH F32E (human, UniProt Q03014 7-270, F32E).
T4 sequence: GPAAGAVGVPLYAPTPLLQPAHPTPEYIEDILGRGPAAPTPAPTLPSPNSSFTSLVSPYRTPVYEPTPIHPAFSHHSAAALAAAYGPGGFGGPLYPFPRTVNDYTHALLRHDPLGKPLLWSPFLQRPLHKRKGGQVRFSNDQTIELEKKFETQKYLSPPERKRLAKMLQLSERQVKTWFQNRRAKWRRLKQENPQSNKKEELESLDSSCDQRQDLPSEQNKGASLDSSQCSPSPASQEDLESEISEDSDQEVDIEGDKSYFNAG

B1: PRH-binding site oligonucleotide (dsDNA)
DNA 1: GCTTCTGGGAAGCAATTAAAAAATGGCTCGAGCT
DNA 2: CGAGCCATTTTTTAATTGCTTCCCAGA
In the case of B1, the binding result with His-PRH (wild type) is listed as “binds”; in the series with His-PRH R188A,R189A, “no binding”; in the series with His-PRH N187A it was “no binding”; in the series with His-PRH F32E, “binds”.
